# Assay results taken from paper doi:10.1101/2023.10.05.561114, “Conditional Requirement for Dimerization of the Membrane-Binding Module of BTK” (bioRxiv, 2023).
# B1: BTK PH–TH module (residues 1–171), wild type, with C-terminal mNeonGreen (domain or fragment, human, UniProt Q06187 1-171, looked up)
# chain: MAAVILESIFLKRSQQKKKTSPLNFKKRLFLLTVHKLSYYEYDFERGRRGSKKGSIDVEKITCVETVVPEKNPPPERQIPRRGEESSEMEQISIIERFPYPFQVVYDEGPLYVFSPTEELRKRWIHQLKNVIRYNSDLVQKYHPCFWIDGQYLCCSQTAKNAMGCQILENR
# notes: Bruton's tyrosine kinase (BTK), human, pleckstrin-homology and tec-homology domains (PH–TH module), residues 1–171; ZnCl2 was added during expression; also called PH–TH^WT; source: E. coli BL21-DE3, purified (HisTrap, SUMO protease cleavage, second HisTrap, Superdex 75); not shown: His6, N-terminal, cleaved; SUMO, N-terminal, cleaved; mNeonGreen, C-terminal, kept
# Biological target: the molecule itself
# Assay: fluorescence correlation spectroscopy (FCS); protein adsorbed on supported lipid bilayers with 96% DOPC and 4% PIP3; two-dimensional diffusion rate measured against surface density; fit to a 2D diffusion model; imaging buffer HBSS with 0.01% w/v beta-casein, with scavenging mixture
protein,measurement,value
B1,binding result,binds
